The values that follow come from US20260062447A1 (UNIVERSITY OF SOUTHAMPTON, published 2026).

In test [1] the target is HIF-1 three-domain protein. The test is described as follows: cell-based or functional assay.
Test [2] concerns the target T1, HIF-1α PAS-B domain (UniProt Q16665 238-349, limits assumed, labelled for MST (label not named)).
T1 construct: domain: PAS-B; 25 nM labelled protein in the assay; also called HIF-1α PAS-B protein; labelled HIF-1α PAS-B
The test is described as follows: MST (microscale thermophoresis), labelled HIF-1α PAS-B [part 3 of 14) B]. For orientation: In MST a laser heats a spot of the sample, and binding alters the fluorescence response.
Description: (§1) An aliquot of labelled HIF-1α PAS-B was thawed on ice and diluted to 50 nM with HIF MST assay buffer, before being centrifuged at 12,000 rpm for 15 minutes. […] Samples were loaded into NanoTemper® Monolith NT.115 premium treated capillaries and measurements were carried out using a Monolith NT.115 system at 25° C. using 50% MST power and 50% LED power. Data was analysed by NanoTemper® analysis software. Binding curves were fitted using GraphPad Prism 8 software.

Test [3] has as its target T1, HIF-1α PAS-B domain. The test is described as follows: MST (microscale thermophoresis), labelled HIF-1α PAS-B [part 3 of 5].
Description: as §1
In test [4] the target is T1, HIF-1α PAS-B domain. The test is described as follows: MST (microscale thermophoresis), labelled HIF-1α PAS-B [part 4 of 5].
Description: as §1

T1 sequence (Q16665 238-349 limits assumed): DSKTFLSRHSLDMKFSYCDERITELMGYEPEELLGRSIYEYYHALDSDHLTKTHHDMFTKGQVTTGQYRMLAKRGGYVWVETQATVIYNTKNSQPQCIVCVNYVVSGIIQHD

B1: cyclo-CLLFVY (Cys leu leu phe val tyr) (peptide)
peptide: CLLFVY
modifications: cyclic peptide (cyclo-)
On to B1, for which the “IC50 of inhibition of FAM-HRE DNA binding (fluorescence polarization)” value in test [1] stood at 76.5 µM.

B2: Cyclo-CLLYVY (peptide)
cyclic peptide: CLLYVY
modifications: cyclic (cyclo-) peptide
notes: also called Y derivative at the phenylalanine position; Cys leu leu tyr val tyr
By Kd is commonly meant the concentration at which binding is half-saturated. The low end stands for higher affinity, the high end for lower affinity. For B2, the Kd with HIF-1α PAS-B domain [2] was > 200 µM.

B3: cyclic peptide Thr leu leu phe val tyr (peptide)
peptide: TLLFVY
modifications: cyclic peptide
notes: Comparative purposes only; also called T (threonine) cysteine derivative
Consider B3, for which the binding result with HIF-1α PAS-B domain [3] is “no binding”.

B4: cyclic peptide Met leu leu phe val tyr (peptide)
peptide: MLLFVY
modifications: cyclic peptide
notes: Comparative purposes only; also called M (methionine) cysteine derivative
Consider B4, for which the binding result with HIF-1α PAS-B domain [4] was “no binding”.

B5: cyclic peptide Ser leu leu phe val tyr (peptide)
peptide: SLLFVY
modifications: cyclic peptide
notes: Comparative purposes only; also called S (serine) cysteine derivative
Consider B5, for which the binding result with HIF-1α PAS-B domain [3] is “no binding”.
